In patent publication US20120183545A1 (Merck KGaA, published 2012):
Values belong to the molecule of their own block, whether it stands above or below them.

B2: human CD20 antigen on Daudi lymphoma cells (other, UniProt P11836 1-297, looked up)
chain: MTTPRNSVNGTFPAEPMKGPIAMQSGPKPLFRRMSSLVGPTQSFFMRESKTLGAVQIMNGLFHIALGGLLMIPAGIYAPICVTVWYPLWGGIMYIISGSLLAATEKNSRKCLVKGKMIMNSLSLFAAISGMILSIMDILNIKISHFLKMESLNFIRAHTPYINIYNCEPANPSEKNSPSTQYCYSIQSLFLGILSVMLIFAFFQELVIAGIVENEWKRTCSRPKSNIVLLSAEEKKEQTIEIKEEVVGLTETSSQPKNEEDIEIIPIQEEEEEETETNFPEPPQDQESSPIENDSSP
notes: whole, on cells; also called Bp35

Legend:
[1] = target: T1, human CD20 antigen on Daudi lymphoma cells (human) (UniProt P11836); experiment: flow cytometry on Daudi cells; antibody at 5 g/ml as printed
T1 sequence (looked up): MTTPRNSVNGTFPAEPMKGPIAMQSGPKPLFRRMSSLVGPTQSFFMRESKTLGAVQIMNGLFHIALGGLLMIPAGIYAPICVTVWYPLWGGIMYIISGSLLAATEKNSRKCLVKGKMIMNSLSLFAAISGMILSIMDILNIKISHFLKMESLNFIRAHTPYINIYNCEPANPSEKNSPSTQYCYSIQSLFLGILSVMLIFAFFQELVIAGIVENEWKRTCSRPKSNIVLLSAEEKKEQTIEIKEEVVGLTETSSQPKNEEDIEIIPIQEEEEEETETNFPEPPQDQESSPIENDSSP

[2] = target: T1, human CD20 antigen on Daudi lymphoma cells (human); experiment: flow cytometry on Daudi cells; antibody at 10 g/ml as printed
[3] = target: T1, human CD20 antigen on Daudi lymphoma cells (human); experiment: flow cytometry on Daudi cells; antibody at 2.5 g/ml as printed
[4] = target: T1, human CD20 antigen on Daudi lymphoma cells (human); experiment: flow cytometry on Daudi cells; antibody at 1.25 g/ml as printed
[5] = target: T1, human CD20 antigen on Daudi lymphoma cells (human); experiment: flow cytometry on Daudi cells; antibody at 0.078 g/ml as printed
[6] = target: T1, human CD20 antigen on Daudi lymphoma cells (human); experiment: flow cytometry on Daudi cells; antibody at 0.156 g/ml as printed
[7] = target: T1, human CD20 antigen on Daudi lymphoma cells (human); experiment: flow cytometry on Daudi cells; antibody at 0.313 g/ml as printed
[8] = target: T1, human CD20 antigen on Daudi lymphoma cells (human); experiment: flow cytometry on Daudi cells; antibody at 0.625 g/ml as printed
IL-2 Rβ on TF-1β cells = IL-2 Rβ on TF-1β cells (UniProt P14784); experiment: cell-based or functional assay
Chain of IL-2 Rβ on TF-1β cells (P14784 27-551): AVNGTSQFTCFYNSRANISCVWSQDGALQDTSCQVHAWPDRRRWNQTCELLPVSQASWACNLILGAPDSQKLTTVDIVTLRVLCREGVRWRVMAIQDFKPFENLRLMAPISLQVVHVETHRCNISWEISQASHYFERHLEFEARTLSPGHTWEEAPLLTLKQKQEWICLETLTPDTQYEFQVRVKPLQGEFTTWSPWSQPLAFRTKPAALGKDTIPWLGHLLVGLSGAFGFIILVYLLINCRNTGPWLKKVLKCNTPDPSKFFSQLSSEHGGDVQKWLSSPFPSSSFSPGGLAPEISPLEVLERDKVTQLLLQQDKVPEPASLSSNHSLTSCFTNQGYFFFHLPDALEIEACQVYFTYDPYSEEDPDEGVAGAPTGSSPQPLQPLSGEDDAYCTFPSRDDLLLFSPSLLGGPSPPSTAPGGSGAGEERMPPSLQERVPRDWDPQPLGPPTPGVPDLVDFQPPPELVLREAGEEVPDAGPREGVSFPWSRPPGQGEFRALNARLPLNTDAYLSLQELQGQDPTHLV

[9] = target: high affinity IL-2R on a mouse cell line (CTLL-2) (mouse) (UniProt P01590); experiment: cell-based or functional assay
Chain of high affinity IL-2R on a mouse cell line (CTLL-2) (mouse) (P01590 22-268, chain 1 of 3): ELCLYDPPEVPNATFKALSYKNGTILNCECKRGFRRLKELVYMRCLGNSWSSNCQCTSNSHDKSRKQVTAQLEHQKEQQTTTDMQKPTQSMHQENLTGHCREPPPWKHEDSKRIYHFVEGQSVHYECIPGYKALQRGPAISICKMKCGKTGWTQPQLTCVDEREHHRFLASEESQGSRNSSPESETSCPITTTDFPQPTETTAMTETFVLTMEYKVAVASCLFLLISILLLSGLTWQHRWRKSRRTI
Chain of high affinity IL-2R on a mouse cell line (CTLL-2) (mouse) (P16297 27-539, chain 2 of 3, further chain): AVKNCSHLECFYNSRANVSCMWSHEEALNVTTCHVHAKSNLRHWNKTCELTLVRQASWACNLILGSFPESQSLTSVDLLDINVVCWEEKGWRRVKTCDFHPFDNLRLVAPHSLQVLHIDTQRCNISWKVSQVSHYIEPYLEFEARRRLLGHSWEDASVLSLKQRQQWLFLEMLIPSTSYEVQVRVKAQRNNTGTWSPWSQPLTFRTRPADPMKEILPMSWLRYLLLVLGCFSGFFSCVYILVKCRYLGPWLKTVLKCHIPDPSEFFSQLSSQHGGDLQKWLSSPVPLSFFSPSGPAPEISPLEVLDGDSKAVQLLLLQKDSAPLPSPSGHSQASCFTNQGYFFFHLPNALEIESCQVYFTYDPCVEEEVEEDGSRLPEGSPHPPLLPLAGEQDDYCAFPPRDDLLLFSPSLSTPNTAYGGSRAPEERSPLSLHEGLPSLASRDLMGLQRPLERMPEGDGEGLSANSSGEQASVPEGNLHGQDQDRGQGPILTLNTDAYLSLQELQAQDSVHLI
Chain of high affinity IL-2R on a mouse cell line (CTLL-2) (mouse) (P34902 23-369, chain 3 of 3, further chain): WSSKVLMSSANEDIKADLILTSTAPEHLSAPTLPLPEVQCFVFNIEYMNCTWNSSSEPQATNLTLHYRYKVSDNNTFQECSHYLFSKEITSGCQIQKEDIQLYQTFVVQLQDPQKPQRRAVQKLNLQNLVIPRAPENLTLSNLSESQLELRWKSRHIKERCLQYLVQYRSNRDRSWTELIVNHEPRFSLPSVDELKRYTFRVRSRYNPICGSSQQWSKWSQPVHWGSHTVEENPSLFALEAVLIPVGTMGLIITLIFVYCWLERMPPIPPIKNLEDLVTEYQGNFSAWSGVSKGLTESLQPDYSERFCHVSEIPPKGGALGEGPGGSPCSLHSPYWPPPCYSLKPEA

[10] = target: B2; experiment: flow cytometry on Daudi cells, FIG. 6 Panel A
Experimental: FIG. 6 illustrates the anti-CD20 binding activity of CD20-binding polypeptide compositions and immunocytokines (ICs). Human Daudi lymphoma cells were incubated with varying concentrations of polypeptide compositions and ICs and relative binding to the cells was assessed by flow cytometry, as described in Example 2.
(§1) Approximately 10⁶ Daudi cells were used with various concentrations of antibody or antibody-IL2 fusion protein in a 100 μl volume, for each sample tested.

[11] = target: T2, Leu16VhY/VkZ-IL2 (anti-CD20 PC2) (human, UniProt P60568 21-153); experiment: flow cytometry on Daudi cells
T2 construct: Antibody-IL2 fusion (immunocytokine), glycosylated; also called AbVhY/VkZ-IL2; Ab(VhY/VkZ)-IL2; not shown: human kappa light chain constant region
T2 sequence (P60568 21-153 limits assumed): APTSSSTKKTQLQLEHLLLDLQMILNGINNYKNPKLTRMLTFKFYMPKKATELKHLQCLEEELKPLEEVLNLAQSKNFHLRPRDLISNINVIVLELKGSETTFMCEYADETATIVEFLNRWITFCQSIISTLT
Experimental: as §1

Molecule: KS-IL2, anti-EpCAM antibody fused to human IL-2 at the C-terminus of the antibody heavy chains (from UniProt P60568 21-153)
TF-1β ED50 (IL-2 Rβ on TF-1β cells): 0.51 ng/mL
CTLL-2 ED50 [9]: 1.71 ng/mL

B1: Leu16VhY/VkZ (anti-CD20 PC1) (antibody, IgG1, V domains shown)
VH: EVQLQQSGAELKKPGASVKVSCKASGYTFTSYNMHWVKQTPGQGLEWIGAIYPGNGDTSYNQKFKGKTTLTADKSSSTAYMELSSLRSEDTAVYYCARSNYYGSSYWFFDVWGTGTTVTVSS
VL: DIVLTQSPAIITASPGEKVTMTCRASSSVNYMDWYQKKPGSSPKPWIYATSNLASGVPSRFSGSGSGTTYSMTISSLEAEDAATYYCQQWSFNPPTFGGGTKLEIK
notes: Chimeric IgG1/kappa antibody; also called DILeu16; DI-Leu16 antibody; not shown: human kappa light chain constant region
binding result [10]: binds

Molecule: B2
binding result [11]: binds

Next, values leading:

mean fluorescence intensity [1]: 720
mean fluorescence intensity [2]: 857
mean fluorescence intensity [3]: 513
mean fluorescence intensity [4]: 369
mean fluorescence intensity [5]: 52.1
mean fluorescence intensity [6]: 85.3
mean fluorescence intensity [7]: 147
mean fluorescence intensity [8]: 229
Molecule: 2B8-IL2 fusion protein

CTLL-2 ED50 [9]: 0.65 ng/mL
Molecule: human rIL-2 (from UniProt P60568 21-153) (ligand)
